| Substance | GAP activity (reduction of GTP-bound small G protein, pull-down with effector-domain beads) (Ras) | GAP activity (reduction of GTP-bound small G protein, pull-down with effector-domain beads) (Rac1) | GAP activity (reduction of GTP-bound small G protein, pull-down with effector-domain beads) (Rap1) |
| --- | --- | --- | --- |
| SynGAP α1 (isoform construct co-transfected in the small GTPase assay) | SynGAP α1 and α2 has mild preference towards Ras rather than Rap |  |  |
| SynGAP α2 (isoform construct co-transfected in the small GTPase assay) | SynGAP α1 and α2 has mild preference towards Ras rather than Rap |  |  |
| SynGAP β (isoform construct co-transfected in the small GTPase assay) | SynGAP β generally has highest GAP activity into all small G proteins among other isoforms | SynGAP β generally has highest GAP activity into all small G proteins among other isoforms |  |
| SynGAP γ (isoform construct co-transfected in the small GTPase assay) |  |  | SynGAP β and γ has mild preference towards Rap1 |

— patent US20210180062
